Values of other authors in paper PMC11658791.
Where two headings read alike, the source gives them in different places.

What was measured:
[1] = molecular target: Colicin M (Cma) (Escherichia coli) (UniProt P05820)
TonB (Escherichia coli) [2] = molecular target: TonB (Escherichia coli) (UniProt P02929)
TonB (Escherichia coli) [3] = molecular target: TonB (Escherichia coli) (UniProt P02929); assay: ITC
[4] = molecular target: FpvAI (Pseudomonas aeruginosa) (UniProt P48632)
UniProt P48632, sequence (P48632 44-815): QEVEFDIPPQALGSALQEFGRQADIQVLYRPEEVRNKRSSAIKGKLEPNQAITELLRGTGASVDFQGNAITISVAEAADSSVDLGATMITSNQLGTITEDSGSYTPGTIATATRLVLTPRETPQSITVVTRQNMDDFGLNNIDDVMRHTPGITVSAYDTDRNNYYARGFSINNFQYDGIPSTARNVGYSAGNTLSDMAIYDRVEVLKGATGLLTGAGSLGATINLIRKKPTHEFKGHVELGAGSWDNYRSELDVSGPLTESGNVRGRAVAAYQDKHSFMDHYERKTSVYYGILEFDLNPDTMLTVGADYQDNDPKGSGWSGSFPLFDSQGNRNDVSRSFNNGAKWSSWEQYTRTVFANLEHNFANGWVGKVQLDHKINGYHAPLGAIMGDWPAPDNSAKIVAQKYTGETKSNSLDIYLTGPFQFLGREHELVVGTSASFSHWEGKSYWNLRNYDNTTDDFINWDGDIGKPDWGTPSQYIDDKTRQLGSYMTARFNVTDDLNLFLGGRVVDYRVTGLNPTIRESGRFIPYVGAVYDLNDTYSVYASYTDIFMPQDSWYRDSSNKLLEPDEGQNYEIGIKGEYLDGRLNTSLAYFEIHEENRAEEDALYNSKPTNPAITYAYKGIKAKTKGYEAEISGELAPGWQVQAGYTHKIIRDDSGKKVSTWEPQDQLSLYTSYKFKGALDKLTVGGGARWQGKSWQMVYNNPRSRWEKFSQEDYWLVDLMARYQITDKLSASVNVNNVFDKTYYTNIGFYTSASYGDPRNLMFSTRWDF

UniProt P02929, sequence (P02929 whole entry): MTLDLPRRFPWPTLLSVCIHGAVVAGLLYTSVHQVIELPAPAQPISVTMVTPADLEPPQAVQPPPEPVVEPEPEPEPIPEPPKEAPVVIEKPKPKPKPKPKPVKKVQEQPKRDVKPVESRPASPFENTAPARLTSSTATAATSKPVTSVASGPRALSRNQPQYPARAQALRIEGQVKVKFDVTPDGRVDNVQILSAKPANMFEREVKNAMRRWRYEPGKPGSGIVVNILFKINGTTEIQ
UniProt P05820, sequence (P05820 whole entry): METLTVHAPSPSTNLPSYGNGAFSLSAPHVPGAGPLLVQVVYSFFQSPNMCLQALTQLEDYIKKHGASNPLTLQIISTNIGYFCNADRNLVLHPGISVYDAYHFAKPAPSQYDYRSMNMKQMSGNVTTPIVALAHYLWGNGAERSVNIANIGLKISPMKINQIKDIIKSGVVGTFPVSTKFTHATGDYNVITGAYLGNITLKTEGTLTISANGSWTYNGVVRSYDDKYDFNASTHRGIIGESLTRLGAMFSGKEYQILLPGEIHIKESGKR

Substance	Kd [1]	Kd (TonB (Escherichia coli) [2])	Kd (TonB (Escherichia coli) [3])	Kd [4]
FhuA (from UniProt P06971)	3.5 nM	20 nM	200 nM	
Pyocin S2 (pyoS2NTD) N-terminal domain (from UniProt Q06584)				0.24 nM
